US20250304677A1 (VIB VZW, published 2025)

B1: VHH 3MFR60 (family 10) (VHH)
VHH: QVQLQESGGGLVQAGGSLRVSCAASGIIFSMNGMGWFRQAPGKQRELVASITSGGSTKYADSVKGRFTISRDNAKNTVYLQMNSLKPEDTAVYYCNIQFGSRWSTYWGQGTQVTVSS
B2: VHH 2HFO42 (family 3) (VHH)
VHH: QVQLQESGGGLVQAGGSLRLSCAASGSGFSGMIMGWYRQVPGKQRELVATVTSHGTTNYADSVKGRFTISRDNAKNTVLLQMNSLKPEDTAVYYCNAHFPGIYWGKGTQVTVSS
notes: also called 2HF042; Nb42
B3: VHH 2HFO19 (family 1) (VHH)
VHH: QVQLQESGGGLVQPGGSLRVSCAASGFPFSTVYMSWVRQAPGKGLEWVSGINNDGGVIDYADSVKGRFTISRDNAKNTLYLQLNSLKPEDTALYFCARGRSFVATLSSSLRGQGTQVTVSS
notes: also called Nb19

biological target: T1, mouse folate receptor alpha (mFRα), recombinant protein (mouse, UniProt P35846 25-232); experiment: BLI tandem binning on mouse FRα; competitor (1st association) 3MFR60
T1 construct: Bought recombinant proteins (e.g. biotinylated, Acro Biosystems FO1-M82E9); also called mFOLR1; Ms FOLR1
Source text: (§1) VHHs that share high sequence identity in the CDR3 region, a VHH family, are derived from the same B-cell lineage and diverged from each other due to somatic hypermutation or affinity maturation. Typically, VHHs from the same family recognize the same epitope on the target, but may differ in other characteristics ^{∘}De Genst et al 2006 PNAS 103:4586-4591; De Gents et al 2005 J Biol Chem 280:14114-14121). To study whether the VHHs from the different families bound different epitopes, epitope binning was performed using a tandem binding approach in BLI. One VHH from each family was allowed to bind to mouse FRα on the biosensor, followed by binding of the second VHH ^{∘}Table 4).
(§2) Competition between VHHs from different complementarity determining region ^{∘}CDR) 3 families was assessed in a tandem binding assay using biolayer interferometry ^{∘}BLI). Streptavidin biosensors were loaded with biotinylated mouse FRα ^{∘}Acro Biosystems, Cat.nr. FO1-M82E9), followed by binding of anti-FRα VHHs ^{∘}VHH in first association). The biosensors were then transferred to a solution containing a second VHH mixed 1:1 with the first VHH ^{∘}VHH in second association). Using the FortéBio Data Analysis Software the absolute additional binding signal for the second association on top of the first association was calculated. The data were normalized per VHH in first association using the following formula: ^{∘}signal-self)/^{∘}maximum-self) with self being the value of the VHH in first association in combination with the same VHH in second association.

T1 sequence (P35846 25-232 limits assumed): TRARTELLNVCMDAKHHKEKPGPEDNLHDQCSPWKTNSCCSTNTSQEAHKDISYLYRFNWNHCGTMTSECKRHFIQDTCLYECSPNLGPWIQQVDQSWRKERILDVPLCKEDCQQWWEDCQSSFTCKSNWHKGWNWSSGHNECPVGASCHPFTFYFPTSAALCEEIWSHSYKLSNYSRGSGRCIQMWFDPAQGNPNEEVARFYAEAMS

Row | Binder | normalized additional binding in 2nd association [%]
1 | B1 | 0
2 | B2 | -2
3 | B3 | -7

biological target: T2, human FRα Y150H (human, UniProt P15328 25-234); experiment: flow cytometry, transfected HEK293T cells (data not shown)
T2 construct: The entry is the mutant itself
Method in brief: (§3)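 HEK293T cells were transfected with single-residue mutants of human folate receptor alpha. Binding was measured by flow cytometry with each VHH at 200 nM. VHHs were detected with a mouse anti-His tag antibody followed by an anti-mouse phycoerythrin antibody. Untransfected cells served as negative control.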

T2 sequence (P15328 25-234 Y150H limits assumed): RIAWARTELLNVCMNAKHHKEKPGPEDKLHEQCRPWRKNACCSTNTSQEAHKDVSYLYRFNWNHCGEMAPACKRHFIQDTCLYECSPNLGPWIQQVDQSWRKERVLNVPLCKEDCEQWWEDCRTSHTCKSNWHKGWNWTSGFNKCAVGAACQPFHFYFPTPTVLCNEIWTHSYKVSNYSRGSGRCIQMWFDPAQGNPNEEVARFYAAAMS

Row | Binder | binding result
4 | B1 | binds
5 | B2 | binds
6 | B3 | binds

biological target: T3, human FRα R147H (human, UniProt P15328 25-234); experiment: as above
T3 construct: The entry is the mutant itself
Method in brief: as §3

T3 sequence (P15328 25-234 R147H limits assumed): as the sequence (P15328 25-234 Y150H limits assumed) above, with R123H, H126Y counted along it

Row | Binder | binding result
7 | B1 | binds
8 | B2 | binds
9 | B3 | binds

biological target: T4, human FRα E140Q (human, UniProt P15328 25-234); experiment: as above
T4 construct: The entry is the mutant itself
Method in brief: as §3

T4 sequence (P15328 25-234 E140Q limits assumed): as the sequence (P15328 25-234 Y150H limits assumed) above, with E116Q, H126Y counted along it

Row | Binder | binding result
10 | B1 | binds
11 | B2 | binds
12 | B3 | binds

biological target: T1, mouse folate receptor alpha (mFRα), …; experiment: BLI, periplasmic extract, FRα on AR2G biosensors
Method: (§4) After panning of core76/77 on human and mouse folate receptor alpha ^{∘}FRα), […] were randomly selected from the second and third rounds and analyzed by ELISA on both human and mouse FRα for the presence of FRα-specific VHHs in their periplasmic extracts ^{∘}PE). This led to the identification of 98 hits. For these 98 hits, the off-rate ^{∘}koff) in the PE was determined by biolayer interferometry ^{∘}BLI) on both mouse and human FRα that was directly immobilized onto AR2G biosensors. The off-rates were calculated using a 1:1 binding model. […] Abbreviations: SE: standard error.

Row | Binder | koff [s⁻¹]
13 | B1 | 0.00287
14 | B2 | 0.00881
15 | B3 | 0.00279

biological target: T5, human folate receptor alpha (hFRα), recombinant protein (human, UniProt P15328 25-233); experiment: BLI, periplasmic extract, FRα on AR2G biosensors
T5 construct: Bought recombinant proteins (His-tagged, or biotinylated via Avi-tag, e.g. AcroBiosystems FO1-H82E2, F01-H52H1); also called hFOLR1; huFOLR1
Method: as §4

T5 sequence (P15328 25-233 limits assumed): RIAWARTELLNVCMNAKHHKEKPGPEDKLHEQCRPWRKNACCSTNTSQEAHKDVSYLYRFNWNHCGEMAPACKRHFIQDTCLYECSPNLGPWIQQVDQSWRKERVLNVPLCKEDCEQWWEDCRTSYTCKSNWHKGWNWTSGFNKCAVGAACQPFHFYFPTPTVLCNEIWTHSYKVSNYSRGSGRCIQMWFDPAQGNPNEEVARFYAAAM

Row | Binder | koff [s⁻¹]
16 | B1 | 0.0449
17 | B2 | 0.0266
18 | B3 | 0.013

biological target: T1, mouse folate receptor alpha (mFRα), …; experiment: ELISA, periplasmic extract
Source text: (§5) From the lymphocytes of each llama a separate VHH library was constructed to select and screen for the presence of antigen-specific VHHs. To this end, total RNA from peripheral blood lymphocytes was used as template for first strand cDNA synthesis with an oligo ^{∘}dT) primer. Using this cDNA, the VHH encoding sequences were amplified by PCR, digested with PstI and NotI, cloned into the PstI and NotI sites of the phagemid vector pMECS and transformed into E. coli to generate VHH libraries. To enrich these libraries for FRα ^{∘}or FOLR1, as used interchangeably herein)-specific VHHs, a combinatorial panning approach on recombinant human and mouse FOLR1 was used followed by random selection and screening of clones by ELISA for the presence of antigen-specific VHHs in their periplasmic extracts ^{∘}PEs). In order to gauge the cross-reactivity for human and mouse FOLR1, each clone was tested on both antigens.
as §4

Row | Binder | PE-ELISA (ratio to uncoated well)
19 | B1 | 4.9
20 | B2 | 12.2
21 | B3 | 14.2

biological target: T5, human folate receptor alpha (hFRα), …; experiment: ELISA, periplasmic extract
Source text: as §5, §4

Row | Binder | PE-ELISA (ratio to uncoated well)
22 | B1 | 4.8
23 | B2 | 11.7
24 | B3 | 13.8

biological target: T1, mouse folate receptor alpha (mFRα), …; experiment: BLI tandem binning on mouse FRα; competitor (1st association) 2MFR32
Source text: as §1, §2

Row | Binder | normalized additional binding in 2nd association [%]
25 | B1 | 75
26 | B2 | 41
27 | B3 | 100
